Patent publication US20180016324A1 (Regeneron, published 2018)
Residue numbers refer to the chain shown, from its start.

B1: H4H25708N (antibody, V domains shown)
VH: EVQLLESGGDLVQPGGSLRLSCAASGFTFSSYAMSWVRQAPGKGLEWVSAISVSGDSTYYADSVKGRFTISRDNSKNTLYLQMNSLRAEDTAVYYCAKDRGYTWNYYYYGMDVWGQGTTVTVSS
VL: not shown
B2: H4H25710N (antibody, V domains shown)
VH: EVQLLESGGGLVQPGGSLRLSCAASGFTVSNNYMSWVRQAPGKGLEWVSVIYSGGRTNYGDSVKGRFTISRDNSKNTLYLQMNSLRAEDTAVYYCARENYDFWSGDPYGWDVWGQGTTVTVSS
VL: DIQMTQSPSSLSASVGDRVTITCRASQDISNYLAWFQQKPGKAPKSLIYGASSLQRGVPSKFRGSGSGTDFTLTISSLQPEDFASYYCQQYNSYPYTFGQGTKLEIK
B3: H4H25587P (antibody, V domains shown)
VH: EVQLVESGGGLVQPGRSLTLSCAASGFTFDDYVMHWVRQAPGKGLEWVSGISWNSDTIDYADSVKGRFTISRDNAKNSLYLQMNSLRAEDTALYYCAKDRRSWYGGYFDYWGQGTLVTVSS
VL: DIQMTQSPSSLSASVGDRVTITCRASQGISSYLAWYQQKPGKVPKLLIYAASTLQSGVPSRFSGSGSGTDFSLTISSLQPEDVATYYCQKYNSAPLTFGGGTKVEIK
B4: H4H25591P (antibody, V domains shown)
VH: QVQLVESGGGVVQPGRSLRLSCAASGFTFSYSGMHWVRQAPGKGLEWVAVISYDGINKYYADSVKGRFTISRDNSKNTLYLQMNSLRPEDTAVYYCAKDRGGRFDPWGQGTLVTVSS
VL: B3 VL with S31N, K45N, A50G, Q55H, S72T, E81A
B5: H4H25592P (antibody, V domains shown)
VH: B4 VH with I56S, K76N, T78I, P88A, R100W
VL: B3 VL with K39I, Q55H, S72T, E81A
B6: H4H25637P (antibody, V domains shown)
VH: QLQLQESGPGLVKPSETLSLTCTVSGDSISSSNYFWGWIRQPPGKGLEWIGNIYYSGDTYYNPSLKSRVTMSVDTSKKQFSLKLRSVTAADTAVYYCARGRPYYDFWSGYFDYWGQGTLVTVSS
VL: EIVLTQSPGTLSLSPGERATLPCRASQSVSSSYLAWYQQKPGQAPRLLIYGASSRATGIPDRFRGSGSGTDFTLTISRLEPEDFAVYYCQQYGTAPWTFGQGTKVEIK
B7: H4H25566P (antibody, V domains shown)
VH: QVQLQESGPGLVKPSQTLSLTCTVSGGSISSGGYYWSWIRQHPGKGLEWIGYIYYSGSTYYNPSLKSRITISIDTSKNQFSLKLTSVTAADTAVYYCARGQQLLSFDYWGQGTLVTVSS
VL: DIQMTQSPSSVSASVGDRVTITCRASQGISRWLAWYQLKPGKPPTPLIYAASSLQSGAPSRFSGRGSGTDFTLTISSLQPEDFATYYCQQANSFPYTFGQGTKLEIK
B8: H4H25641P (antibody, V domains shown)
VH: B4 VH with S32Y, G55A, I56S, K58N, A61V, P88A, R100Y, P106Y
VL: EIVLTQSPGTLSLSPGERATLSCGASQSVSSYLAWYQQKPGQTPRLLIYGASSRATGIPDRFSGSGSGTDFTLTISRLEPEDFAVYYCQQYGSSPWTFGQGTKVEIK

Key:
[1] = molecular target: T1, ZIKV prM/E polyprotein on virus-like particles (VLPs) from HEK293T/17 cells (Zika virus, UniProt A0A024B7W1 123-795); test: MSD ECL, VLPs on plate
T1 construct: also called ZIKV prM/E VLPs; Zika prM/E VLPs

[2] = molecular target: T2, ZIKV (prM80E) with a C-terminal myc-myc-hexahistidine tag (Zika virus, UniProt A0A024B7W1 104-694); test: SPR, mAb captured, 37C
T2 construct: also called ZIKV (prM80E)-mmH; ZIKV-mmH

[3] = molecular target: T2, ZIKV (prM80E) with a C-terminal …; test: SPR, mAb captured, 37C; remark: listed apart in the source
[4] = molecular target: T2, ZIKV (prM80E) with a C-terminal …; test: SPR, mAb captured, 25C
[5] = molecular target: T2, ZIKV (prM80E) with a C-terminal …; test: SPR, mAb captured, 37C; remark: listed apart in the source
[6] = molecular target: ZIKV envelope glycoprotein (E) of strain MR766 (Uganda 1947) (Zika virus, UniProt Q32ZE1 291-790); test: cell-based or functional assay
[7] = molecular target: T2, ZIKV (prM80E) with a C-terminal …; test: SPR, mAb captured, 37C, pH 7.4
[8] = molecular target: T2, ZIKV (prM80E) with a C-terminal …; test: SPR, mAb captured, 37C, pH 6.0 chase
[9] = molecular target: T2, ZIKV (prM80E) with a C-terminal …; test: SPR, mAb captured, 37C, pH 5.0 chase
[10] = molecular target: T2, ZIKV (prM80E) with a C-terminal …; test: SPR, mAb captured, 37C, pH 5.5 chase
[11] = molecular target: ZIKV envelope glycoprotein (E) of strain PRVABC59 (Puerto Rico 2015) (Zika virus); test: cell-based or functional assay
[12] = molecular target: ZIKV envelope glycoprotein (E) of strain FLR (Colombia 2015) (Zika virus); test: cell-based or functional assay

Row | Binder | EC50 [1] [nM] | t½ pH 7.4/t½ pH 6.0 [2] | t½ pH 7.4/t½ pH 5.0 [3] | t½ pH 7.4/t½ pH 5.5 [3] | Kd [4] [nM] | koff [4] [s⁻¹] | kon [4] [M⁻¹ s⁻¹] | t½ [4] [min] | Kd [5] [nM] | koff [5] [s⁻¹] | kon [5] [M⁻¹ s⁻¹] | t½ [5] [min] | koff [7] [s⁻¹] | t½ [7] [min] | koff [8] [s⁻¹] | t½ [8] [min] | koff [9] [s⁻¹] | t½ [9] [min] | koff [10] [s⁻¹] | t½ [10] [min] | also measured
1 | B1 | 133 | 0.6 | 0.5 | 0.6 | 1.21 | 0.000504 | 417000 | 22.9 | 2.97 | 0.00232 | 781000 | 5 | 0.0026 | 4.45 | 0.00144 | 8.02 | 0.00129 | 8.9 | 0.00157 | 7.37 | neutralization IC50, Vero cells [6]: 0.349 nM
2 | B2 | 0.542 | 24 | 62.6 | 33.4 | 6.99 | 0.00209 | 299000 | 5.5 | 12.4 | 0.0064 | 519000 | 1.8 | 0.00541 | 2.14 | 0.13 | 0.09 | 0.339 | 0.03 | 0.181 | 0.06 | neutralization IC50, Vero cells [6]: 0.0471 nM; neutralization IC50, Vero cells [11]: 1.24 nM; neutralization IC50, Vero cells [12]: 1.06 nM
3 | B3 | 0.145 | 0.8 | 1 | 1 | 5.13 | 0.00422 | 822000 | 2.7 | 13.2 | 0.0145 | 1.1e+06 | 0.8 | 0.018 | 0.64 | 0.0151 | 0.77 | 0.0177 | 0.7 | 0.0174 | 0.66 | neutralization IC50, Vero cells [6]: 0.15 nM; neutralization IC50, Vero cells [11]: 0.321 nM; neutralization IC50, Vero cells [12]: 0.955 nM
4 | B4 | 0.102 | 2.2 | 2.4 | 2.9 | 4.9 | 0.00318 | 649000 | 3.6 | 8.37 | 0.00682 | 816000 | 1.7 | 0.0063 | 1.83 | 0.0136 | 0.85 | 0.0148 | 0.8 | 0.0184 | 0.63 | neutralization IC50, Vero cells [6]: 0.0343 nM; neutralization IC50, Vero cells [11]: 0.254 nM; neutralization IC50, Vero cells [12]: 0.33 nM
5 | B5 | 0.213 | 2.9 | 3.8 | 4.2 | 0.502 | 0.000676 | 1.35e+06 | 17.1 | 1.02 | 0.00165 | 1.61e+06 | 7 | 0.00174 | 6.63 | 0.00503 | 2.3 | 0.00658 | 1.8 | 0.00736 | 1.57 | neutralization IC50, Vero cells [6]: 0.0426 nM; neutralization IC50, Vero cells [11]: 0.218 nM; neutralization IC50, Vero cells [12]: 0.553 nM
6 | B6 | 0.322 | 0.3 | 0.2 | 0.4 | 6.33 | 0.00391 | 617000 | 3 | 9.97 | 0.00989 | 992000 | 1.2 | 0.0118 | 0.98 | 0.00392 | 2.95 | 0.00228 | 5.1 | 0.00414 | 2.79 | neutralization IC50, Vero cells [6]: 0.0671 nM; neutralization IC50, Vero cells [11]: 0.239 nM; neutralization IC50, Vero cells [12]: 0.134 nM
7 | B7 | 0.82 | 5.5 | 6.8 | 7.2 | 27.7 | 0.0163 | 590000 | 0.7 | 52.5 | 0.036 | 687000 | 0.3 | 0.0542 | 0.21 | 0.299 | 0.04 | 0.368 | 0.03 | 0.392 | 0.03 | neutralization IC50, Vero cells [12]: 1.55 nM
8 | B8 | 2.87 | 0.8 | 0.7 | 1.1 | 8.75 | 0.00922 | 1.05e+06 | 1.3 | 11.9 | 0.0188 | 1.59e+06 | 0.6 | 0.0191 | 0.61 | 0.0159 | 0.73 | 0.0133 | 0.9 | 0.0204 | 0.57 | neutralization IC50, Vero cells [6]: 0.0371 nM; neutralization IC50, Vero cells [11]: 0.356 nM; neutralization IC50, Vero cells [12]: 0.212 nM
